Experiment [1] has as its target recombinant HCIQ2c1 Kunitz-type peptide from Heteractis crispa (Heteractis crispa). Description: SPR; Biacore 3000; peptides covalently immobilised on a CM4 chip (970 RU rHCIQ2c1, 460 RU rHCIQ4c7); proteinases 1 nM to 5 μM flowed over; 25 °C; HBS: 0.15 M NaCl, 0.01 M HEPES, pH 7.4.
Experiment [2] shares this target. Description: SPR; rHCIQ2c1 immobilised on a CM4 chip; temperature range of 10–40 °С at an interval of 5 °С; enthalpy from the temperature dependence of ΔG (Van't Hoff diagram). A general note: Surface plasmon resonance follows binding to a sensor surface in real time, without labels.

Chain of recombinant HCIQ2c1 Kunitz-type peptide from Heteractis crispa (Heteractis crispa) (A0A6B7FBD3 28-85): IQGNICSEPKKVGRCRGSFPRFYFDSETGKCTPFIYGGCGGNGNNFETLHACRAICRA

As usually defined, the Kd is the concentration at which binding is half-saturated. For orientation: koff means the first-order rate constant of dissociation. By kon is commonly meant the second-order rate constant of association. For the substance “cathepsin G (from UniProt P08311 21-244) (enzyme)”, in experiment [1], the Ka was found to be 3.58e+09 M⁻¹, the Kd came out at 0.279 nM, the koff came to 0.000359 s⁻¹ and the kon amounted to 1.29e+06 M⁻¹ s⁻¹.

For the substance α-chymotrypsin (enzyme), the dH in experiment [2] was 4.68 kcal/mol. In experiment [1], the Ka is 1.03e+07 M⁻¹, the Kd worked out at 97.4 nM, the koff was found to be 0.00749 s⁻¹ and the kon worked out at 76900 M⁻¹ s⁻¹.

The record behind these values is publication PMC7060258.
